Read-outs that look alike come from different tables or passages of the source.
Legend:
[1] = target: IL-6R on human myeloma U266B1 cells (human) (UniProt P08887); test: FACS binding to IL-6R on U266B1 cells
[2] = target: recombinant human IL-6R-extracellular domain (ECD) (human) (UniProt P08887); test: receptor-ligand ELISA, blocking of IL-6 binding to IL-6R
[3] = target: recombinant human IL-6R-extracellular domain (ECD) (human) (UniProt P08887); test: as above; remark: listed apart in the source
[4] = target: IL-6R on human myeloma U266B1 cells (human) (UniProt P08887); test: FACS on U266B1 cells
[5] = target: IL-6R on human myeloma U266B1 cells (human) (UniProt P08887); test: cell-based or functional assay
[6] = target: IL-6R on human myeloma U266B1 cells (human) (UniProt P08887); test: FACS binding to IL-6R on U266B1 cells; remark: listed apart in the source
[7] = target: recombinant human IL-6R-extracellular domain (ECD) (human) (UniProt P08887); test: direct ELISA on IL-6R
[8] = target: IL-6R on human myeloma U266B1 cells (human) (UniProt P08887); test: cell-based or functional assay; remark: listed apart in the source
[9] = target: recombinant human IL-6R-extracellular domain (ECD) (human) (UniProt P08887); test: SPR

Sequence of IL-6R on human myeloma U266B1 cells (human) (P08887 20-468): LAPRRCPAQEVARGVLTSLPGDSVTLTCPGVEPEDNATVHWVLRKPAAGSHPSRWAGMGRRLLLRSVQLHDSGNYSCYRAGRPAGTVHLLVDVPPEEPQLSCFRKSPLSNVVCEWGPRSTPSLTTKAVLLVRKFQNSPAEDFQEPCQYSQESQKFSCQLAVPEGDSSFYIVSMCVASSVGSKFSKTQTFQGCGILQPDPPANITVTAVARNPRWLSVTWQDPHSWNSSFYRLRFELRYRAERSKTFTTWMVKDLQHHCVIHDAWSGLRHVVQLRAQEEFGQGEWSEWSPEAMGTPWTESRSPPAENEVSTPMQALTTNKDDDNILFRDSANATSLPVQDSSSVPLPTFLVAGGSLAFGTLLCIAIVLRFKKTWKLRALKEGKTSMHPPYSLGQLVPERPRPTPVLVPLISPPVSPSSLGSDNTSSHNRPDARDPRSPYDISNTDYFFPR
Sequence of recombinant human IL-6R-extracellular domain (ECD) (human) (P08887 20-365): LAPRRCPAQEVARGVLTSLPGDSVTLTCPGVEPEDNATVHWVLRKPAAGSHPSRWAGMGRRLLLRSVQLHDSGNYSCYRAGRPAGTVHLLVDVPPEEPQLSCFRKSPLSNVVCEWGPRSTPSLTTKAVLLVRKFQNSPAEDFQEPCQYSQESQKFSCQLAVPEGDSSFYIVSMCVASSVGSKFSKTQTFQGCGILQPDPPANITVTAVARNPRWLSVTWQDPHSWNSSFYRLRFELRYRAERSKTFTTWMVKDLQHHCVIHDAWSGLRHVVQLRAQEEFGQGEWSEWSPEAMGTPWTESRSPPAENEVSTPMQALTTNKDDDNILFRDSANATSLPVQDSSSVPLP

- EC50 [1]: 0.602 µg/mL
- IC50 [2]: 1.1 µg/mL
- IC50 [3]: 0.56 µg/mL
- EC50 (read off the curve) [4]: 0.6 µg/mL
- TF-1 proliferation IC50 [5]: 0.214 µg/mL
- EC50 [6]: 0.206 µg/mL
- EC50 [7]: 0.0458 µg/mL
- TF-1 proliferation IC50 [8]: 0.04 µg/mL
- Kd [9]: 3.85 nM
- koff [9]: 0.00097 s⁻¹
- kon [9]: 252000 M⁻¹ s⁻¹
B1: Tocilizumab (antibody, part only; not given: constant regions, V domains shown, not shown: another chain or arm of the molecule)
VH: QVQLQESGPGLVRPSQTLSLTCTVSGYSITSDHAWSWVRQPPGRGLEWIGYISYSGITTYNPSLKSRVTMLRDTSKNQFSLRLSSVTAADTAVYYCARSLARTTAMDYWGQGSLVTVSS
VL: DIQMTQSPSSLSASVGDRVTITCRASQDISSYLNWYQQKPGKAPKLLIYYTSRLHSGVPSRFSGSGSGTDFTFTISSLQPEDIATYYCQQGNTLPYTFGQGTKVEIK

From patent publication US20120225060A1
